{
  "source": "patent US20230272378A1",
  "about": "“ENCODING AND EXPRESSION OF ACE-tRNAs” (University of Rochester, priority 2020, published 2023)",
  "molecules": {"B1": {"name": "ACE-tRNA^LeuUGA: anti-codon edited leucine tRNA recognizing the UGA PTC, SEQ ID NO: 4 (nucleic acid)", "chain": "ACCAGAAUGGCCGAGUGGUUAAGGCGUUGGACUUCAGAUCCAAUGGAUUCAUAUCCGCGUGGGUUCGAACCCCACUUCUGGUA", "modifications": "expressed or natural sequence"}, "B2": {"name": "SV40 sequence: DNA sequence from the SV40 genome containing the enhancer repeats, DNA nuclear targeting sequence (nucleic acid)", "DNA": "ATGCTTTGCATACTTCTGCCTGCTGGGGAGCCTGGGGACTTTCCACACCCTAACTGACACACATTCCACAGCTGGTTGGTACCTGCA", "modifications": "listed as DNA, chemistry not fully specified"}, "B3": {"name": "ACE-tRNA^GlyUGA: anti-codon edited glycine tRNA recognizing the UGA PTC, SEQ ID NO: 5 (nucleic acid)", "chain": "GCGUUGGUGGUAUAGUGGUUAGCAUAGCUGCCUUCAAAGCAGUUGACCCGGGUUCGAUUCCCGGCCAACGCA", "modifications": "expressed or natural sequence"}},
  "key": {"p.W1282X-CFTR mRNA": {"test_system": "p.W1282X-CFTR mRNA", "experiment": "qPCR of steady state CFTR mRNA (NMD inhibition) in p.W1282X 16HBE14o- cells", "format": "cell-based, human", "conditions": "pW1282X cells; 48 hours after transfection; equal amounts; plain ACE-tRNA^Leu = plasmid", "text": "(§1) (A) Representative image of 16HBE14o- cells transfected on Transwells. (B) Representative Cl^− short circuit current traced from WT (Black), p.R1162X 16HBE14oe- cells transfected with empty vector (red) and 500 bp ACE-tRNA^Arg CEDTs (blue) in Ussing chamber recordings. […] All constructs were transfected at equal amounts. *p<0.05; **p<0.0001.\n(§2) The majority of prior studies had used suppressor tRNAs to rescue PTCs encoded from cDNAs. […] In this example, 16HBE14o- cells, human bronchiole epithelial cell line, were used to determine ACE-tRNAs PTC suppression activity within the endogenous genomic landscape. Also used were mutant 16HBE14o- cells, which were CRISPR/Cas9 modified to harbor CF causing PTCs at positions p.G542X-, p.R1162X- and p.W1282X-CFTR. The cells were used to study CFTR and airway epithelia biology (Cozens, A. L. et al. American journal of respiratory cell and molecular biology 10, 38-47 (1994)).\n(§3) The inventors next looked to see if ACE-tRNAs inhibited NMD following transfection of ACE-tRNA transcripts.\nIt had been previously shown that leucine at CFTR p.W1282 (p.W1282L) gives ˜80% WT CFTR function, as measured with Ussing chamber recordings (Xue, X. et al., Human molecular genetics 26, 3116-3129, doi:10.1093/hmg/ddx196 (2017))."}, "W1282X-CFTR mRNA": {"test_system": "W1282X-CFTR mRNA", "experiment": "CFTR mRNA expression in W1282X-CFTR 16HBE14ge- cells", "format": "cell-based, human", "method": "In this example, studies were carried out to examine and compare rescues of endogenous CFTR PTCs with a conventional PTC readthrough agent (i.e., G418) and ACE-tRNAs delivered in plasmids. To that end, an engineered human bronchiole epithelial cell line, 16HBE14ge-, was used (Valley et al., Journal of Cystic Fibrosis, Volume 18, Issue 4, July 2019, Pages 476-483). G418 (Geneticin) is a standard PTC readthrough agent that works by interacting with the decoding center of the ribosome and promoting the suppression of PTCs with near-cognate tRNAs, thus incorporating wrong amino acids in many instances. Due to its non-specific nature, rescue by G418 results in generation of a missense mutation from a nonsense mutation. In contrast, ACE-tRNAs as disclosed herein put in the desired amino acid.\nTo carry out the assays, wildtype 16HBE14ge- cells or 16HBE14ge- cells having the W1282X-CFTR or R1162X-CFTR mutation were (i) treated with 100 uM G418 or vehicle, or (ii) transfected with empty plasmids or various plasmids encoding one or four copies of three ACE-tRNAs (SEQ ID NOs: 8, 4, and 1): 1×ACE-tRNA^Arg 4×ACE-tRNA^Arg, 1×ACE-tRNA^Leu 4×ACE-tRNA^Leu, 1×ACE-tRNA^Trp, and 4×ACE-tRNA^Trp in the manner described in Example 4. After 48 hours, the corresponding CFTR mRNA expression levels were then determined.\nIn this example, assays were carried out to examine and compare rescues of endogenous CFTR PTCs with ACE-tRNAs delivered in different formats e.g., plasmids, CEDTs, and MCs. The above described 16HBE14ge- cells, which expressed the PTC readthrough reporter piggyBac transgene (FIG. 15A) was used. More specifically, the cells were transfected with plasmids, CEDTs, or MCs encoding ACE-tRNAs. The cells were then sorted by FACS and mRNA was isolated from the non-green cells and green cells. Targeted RT-qPCR was used to quantify CFTR mRNA expression. […]\nFurther assays were carried out using 16HBEge- cells having W1282X-CFTR and the PTC readthrough reporter piggyBac transgene. […] The cells were NOT sorted by FACS for mRNA expression analysis, rather the entire population was analyzed."}, "[1]": {"test_system": "nuclei of nondividing cells", "experiment": "Nuclear localization of DNA after cytoplasmic microinjection", "format": "cell-based", "text": "(D) Schematic of ACE-tRNA MC and CEDT with SV40 DTS.\nInventors have screened over 60 strong general and cell-specific promoters and found seven DTSs. Of these, two perform ubiquitously, while five bind specific transcription factors expressed in a subset of cells.\nAs an alternative approach to directly labeling the plasmid with Cy3-PNAs, one can also carry out fluorescent in situ hybridization (FISH) to visualize injected DNA. DTS candidate plasmids can be tested for nuclear import activity over a 30 min to 8 hr period in microinjected A549 lung epithelial cells (Dean, D. A. Exp. Cell Res. 230, 293-302 (1997), Dean, D. A., et al., Exp. Cell Res. 253, 713-722 (1999), and Vacik, J., et al., Gene Therapy 6, 1006-1014 (1999)). […] This approach can allow one to rank sequences relative to the SV40 DTS based on their speed of nuclear import. Negative controls of the pUC57 plasmid with no DTS and a positive control of the pUC57-SV40 DTS can also be injected to ensure that the cells remain viable after injection and have the ability to transport DNA into the nucleus.\nImportantly, existing MC and CEDT technologies are […] at PTC suppression in both cell culture and in vivo (FIGS. 4-7 and 10). […] Therefore, to improve nuclear targeting, transcription and PTC suppression, ACE-tRNA^ArgUGA MCs and CEDTs with the 72 nucleotide SV40 DTS and generally active DTS are generated. […]"}, "UGA codon": {"test_system": "UGA codon", "experiment": "PTC suppression by ACE-tRNA: codon specificity and comparison with aminoglycosides", "format": "cell-based", "text": "Using a novel high throughput cloning (HTC) and screening (HTS) method, a library of more than 500 suppressor tRNAs (ACE-tRNAs) was recently developed. In the library, the anticodon of human tRNA genes were engineered to recognize disease causing PTC codons (UAG, UAA and UGA). The ACE-tRNAs platform targeted all possible PTCs that are resultant of one nucleotide change from translated codons (tRNA^ArgUGA, tRNA^GlnUAA, tRNA^GlnUAG, tRNA^TrpUGA, tRNA^TrpUAG, tRNA^GluUAA, tRNA^GluUAG, tRNA^CysUGA, tRNA^TyrUAG, tRNA^TyrUAA, tRNA^LeuUGA, tRNA^LeuUAG, tRNA^LeuUAA, tRNA^LysUAG, tRNA^LysUGA, tRNA^SerUGA, tRNA^SerUAG, and tRNA^SerUAA)."}, "PTC": {"test_system": "PTC", "experiment": "High resolution mass-spectrometry of the amino acid encoded at the PTC", "method": "Assays were carried out to ascertain whether ACE-tRNAs identified in the screen were functionalized at the expense of recognition by the aminoacyl-tRNA synthetase. […] It was confirmed that using high resolution mass-spectrometry, the cognate amino acid for both ACE-tRNA^GlyUGA and -tRNA^TrpUGA were encoded with high fidelity, resulting in seamless PTC suppression."}, "p.G542X-CFTR mRNA": {"test_system": "p.G542X-CFTR mRNA", "experiment": "qPCR of steady state CFTR mRNA (NMD inhibition) in p.G542X 16HBE14o- cells", "format": "cell-based, human", "conditions": "48 hours after transfection, ACE-tRNA^Gly delivered as plasmid", "text": "as §1, §2, §3"}},
  "data": [
    {"molecule": "B1", "values": [
      {"measurement": "inhibition of NMD / rescue measured by qPCR", "setting": "p.W1282X-CFTR mRNA", "value": "significantly inhibited NMD"},
      {"measurement": "rescue of CFTR mRNA", "setting": "W1282X-CFTR mRNA; delivered via plasmids, FACS-sorted GFP+ and GFP− cells, RT-qPCR", "value": "significantly rescued"},
      {"measurement": "suppression of W1282X compared with Tryptophan ACE-tRNA", "setting": "W1282X-CFTR mRNA; plasmids, 48 hours", "value": "more effectively"},
      {"measurement": "inhibiting nonsense mediated decay compared with G418", "setting": "W1282X-CFTR mRNA; plasmids, G418 100 uM, 48 hours, W1282X-CFTR cells", "value": "significantly more effective"}
    ]},
    {"molecule": "B2", "values": [
      {"measurement": "localization after cytoplasmic injection", "setting": "[1]", "value": "nuclear localization"},
      {"measurement": "time to plasmid nuclear import", "setting": "[1]", "value": "≤ 30", "unit": "min"}
    ]},
    {"molecule": "B3", "values": [
      {"measurement": "stop codon specificity", "setting": "UGA codon", "value": "specific for the UGA codon"},
      {"measurement": "PTC suppression compared with AMG G418 and gentamicin", "setting": "UGA codon; 48 hr incubation in HEK293 cells", "value": "significantly outperformed"},
      {"measurement": "fidelity of encoding the cognate amino acid", "setting": "PTC", "value": "high fidelity"},
      {"measurement": "inhibition of NMD measured by qPCR", "setting": "p.G542X-CFTR mRNA", "value": "significantly inhibited NMD"}
    ]}
  ]
}
